# Columns and labels:
# [1] = molecular target: PEDV spike ectodomain (S-ECD, amino acids 1 to 1325) fused with a T4 foldon at the C-terminus (porcine epidemic diarrhea virus (strain dndz) | bacteriophage T4 (printed as T4)); experiment: SEC
# [2] = molecular target: PEDV spike ectodomain (S-ECD, amino acids 1 to 1325) fused with a T4 foldon at the C-terminus (porcine epidemic diarrhea virus (strain dndz) | bacteriophage T4 (printed as T4)); experiment: transmission electron microscopy; TEM of the purified S protein
substance,measurement,setting,value
"PEDV spike ectodomain (S-ECD, amino acids 1 to 1325) fused with a T4 foldon at the C-terminus (domain or fragment)",stoichiometry N,[1],3
same,stoichiometry N,[2],3

# Source: paper PMC11831279
